According to US20190248875A1:

Biological target: envelope protein of DENV type 2 (DENV2), strain NGC M29095 (dengue virus type 2 (strain NGC)) (UniProt P14340)
Assay: cell-based or functional assay

**Q.** Which fold of infection enhancement of DENV2 in K562 cells (ADE assay) does the source give for “4G2 antibodies against the envelope protein of Flavivirus (antibody)” here?
**A.** The fold of infection enhancement of DENV2 in K562 cells (ADE assay) was 60 fold.
